What was measured:
[1] = target: GST-ATF2 (substrate of kinase assays, residues not stated) (Homo sapiens (Human)) (UniProt P15336)
[2] = target: GST-EGF-R (residues 647-688) (Homo sapiens (Human)) (UniProt P00533)
[3] = target: GST-IκB (Schistosoma japonicum (Blood fluke)) [GST: P08515]
[4] = target: MBP

relative phosphorylation (PhosphorImager) (relative phosphorylation) [1]: 1
relative phosphorylation (PhosphorImager) (relative phosphorylation) [2]: 0.04
relative phosphorylation (PhosphorImager) (relative phosphorylation) [3]: 0.001
relative phosphorylation (PhosphorImager) (relative phosphorylation) [4]: 0.23
Substance: GST-p38 MAP kinase (from UniProt Q16539) (enzyme)

From patent US20030129606A1
